The labels stand for the following.
B1: Azoarcus group I ribozyme (parent)
chain: GUGCCUUGCGCCGGGAAACCACGCAAGGGAUGGUGUCAAAUUCGGCGAAACCUAAGCGCCCGCCCGGGCGUAUGGCAACGCCGAGCCAAGCUUCGGCGCCUGCGCCGAUGAAGGUGUAGAGACUAGACGGCACCCACCUAAGGCAAACGCUAUGGUGAAGGCAUAGUCCAGGGAGUGGCGAAAGUCACACAAACCGG

Data on 83 variants can be found in the RNAGym collection of RNA variant scans (doi:10.1093/molbev/msab373).

The variants in the data set derive from B1. As to the kind of experiment: reverse-splicing fitness (ratio to wild type); higher = more active; in vitro selection; Mg2+ level not given. The gist of the method: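 An in vitro group I ribozyme library with randomized positions was T7-transcribed and gel-purified. In triplicate, 10 pmol RNA in EPPS pH 7.5 was reacted with 50 pmoles of a 30-nt RNA substrate for 1 h at 37 °C across several added MgCl2 levels (1–48 mM), then stopped with EDTA. Products were reverse transcribed from a substrate-complementary primer, PCR-amplified and sequenced (HiSeq 4000). Fitness is a variant's read proportion after selection over that before, normalised to wild type.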
For C82A A111G A120C A145C C150G C169A U176C, the reverse-splicing fitness is 0.0108.

C82A A111G A120C A145C C150G C169A U176G: the reverse-splicing fitness was 0.00545.

On to C82A A111G A120C A145C C150G C169A U176A, for which the reverse-splicing fitness was found to be 0.00906.

For the variant C82A A111G A120C A145C C150U C169A U176G, the reverse-splicing fitness was 0.00704.

In the case of C82A A111G A120C A145C C150U C169A U176C, the reverse-splicing fitness is 0.00983.

On to C82A A111G A120C A145C C150U C169A U176A, for which the reverse-splicing fitness turned out to be 0.0199.

Consider C82A A111G A120C A145G C150U C169A U176C, for which the reverse-splicing fitness was 0.0172.

On to C82A A111G A120C A145G C150U C169A U176A, for which the reverse-splicing fitness stood at 0.0194.

On to C82A A111G A120C A145G C150U C169A U176G, for which the reverse-splicing fitness was 0.00816.

C82A A111G A120C A145C U176A: the reverse-splicing fitness was 0.0165.

On to C82A A111G A120C A145C U176C, for which the reverse-splicing fitness amounted to 0.024.

Regarding C82A A111G A120C A145C U176G, the reverse-splicing fitness was found to be 0.00728.

On to C82A A111G A120C A145C C150G C169U U176A, for which the reverse-splicing fitness was found to be 0.00566.

For C82A A111G A120C A145C C150G C169U U176C, the reverse-splicing fitness is 0.00986.

Take C82A A111G A120C A145C C150G C169U U176G: the reverse-splicing fitness worked out at 0.00527.

Take C82A A111G A120C A145C C150G: the reverse-splicing fitness amounted to 0.00968.

C82A A111G A120C A145C C150U: the reverse-splicing fitness was determined as 0.0161.

For C82A A111G A120C A145C C150A U176G, the reverse-splicing fitness is 0.00529.

Consider C82A A111G A120C A145C C150A U176A, for which the reverse-splicing fitness is 0.0102.

Take C82A A111G A120C A145C C150A U176C: the reverse-splicing fitness is 0.0151.

With C82A A111G A120C A145U C150G C169U, the reverse-splicing fitness is 0.00884.

In the case of C82A A111G A120C A145U C150G C169A, the reverse-splicing fitness was found to be 0.00895.

Turning to C82A A111G A120C A145U C150G C169G, the reverse-splicing fitness was determined as 0.0075.

As to C82A A111G A120C A145C C150G U176G, the reverse-splicing fitness was determined as 0.00265.

As for C82A A111G A120C A145C C150G U176A, the reverse-splicing fitness stood at 0.00522.

Consider C82A A111G A120C A145C C150G U176C, for which the reverse-splicing fitness stood at 0.00712.

With C82A A111G A120C A145U C150U C169A, the reverse-splicing fitness is 0.0102.

Consider C82A A111G A120C A145U C150U C169U, for which the reverse-splicing fitness was determined as 0.0117.

For C82A A111G A120C A145U C150U C169G, the reverse-splicing fitness was 0.00921.

As for C82A A111G A120C A145C C150A C169A U176G, the reverse-splicing fitness was found to be 0.00558.

As to C82A A111G A120C A145G C150U C169U U176C, the reverse-splicing fitness came to 0.0148.

Turning to C82A A111G A120C A145G C150U C169U U176G, the reverse-splicing fitness came out at 0.00671.

Consider C82A A111G A120C A145G C150U C169U U176A, for which the reverse-splicing fitness is 0.0141.

In the case of C82A A111G A120C A145U C150U C169G U176A, the reverse-splicing fitness turned out to be 0.0145.

Turning to C82A A111G A120C A145U C150U C169G U176C, the reverse-splicing fitness was found to be 0.0191.

With C82A A111G A120C A145U C150U C169G U176G, the reverse-splicing fitness was found to be 0.00539.

Take C82A A111G A120C A145G C150U: the reverse-splicing fitness worked out at 0.0349.

As for C82A A111G A120C A145G C150A, the reverse-splicing fitness came to 0.0137.

With C82A A111G A120C A145G C150G, the reverse-splicing fitness is 0.0105.

In the case of C82A A111G A120C A145U C150G C169G U176C, the reverse-splicing fitness stood at 0.00564.

Consider C82A A111G A120C A145U C150G C169G U176A, for which the reverse-splicing fitness came to 0.00801.

Take C82A A111G A120C A145U C150G C169G U176G: the reverse-splicing fitness was 0.00589.

As to C82A A111G A120C A145G C150G C169U U176A, the reverse-splicing fitness came to 0.0129.

On to C82A A111G A120C A145G C150G C169U U176C, for which the reverse-splicing fitness stood at 0.0117.

As to C82A A111G A120C A145G C150G C169U U176G, the reverse-splicing fitness came to 0.00802.

As to C82A A111G A120C A145G C150U C169U, the reverse-splicing fitness was determined as 0.0147.

Regarding C82A A111G A120C A145G C150U C169G, the reverse-splicing fitness was found to be 0.0101.

In the case of C82A A111G A120C A145G C150U C169A, the reverse-splicing fitness is 0.012.

On to C82A A111G A120C A145C C150U C169U, for which the reverse-splicing fitness came to 0.0104.

In the case of C82A A111G A120C A145C C150U C169A, the reverse-splicing fitness is 0.00838.

Consider C82A A111G A120C A145C C150U C169G, for which the reverse-splicing fitness turned out to be 0.00854.

As for C82A A111G A120C A145C C169G, the reverse-splicing fitness was 0.00965.

Take C82A A111G A120C A145C C169A: the reverse-splicing fitness came out at 0.00673.

As to C82A A111G A120C A145C C169U, the reverse-splicing fitness is 0.0116.

In the case of C82A A111G A120C A145G C150G U176G, the reverse-splicing fitness came out at 0.00593.

With C82A A111G A120C A145G C150G U176A, the reverse-splicing fitness stood at 0.00873.

For the variant C82A A111G A120C A145G C150G U176C, the reverse-splicing fitness amounted to 0.0121.

As to C82A A111G A120C A145C C150U C169G U176A, the reverse-splicing fitness is 0.025.

As to C82A A111G A120C A145C C150U C169G U176C, the reverse-splicing fitness was found to be 0.0213.

C82A A111G A120C A145C C150U C169G U176G: the reverse-splicing fitness came out at 0.00681.

On to C82A A111G A120C A145U C150U C169U U176A, for which the reverse-splicing fitness came to 0.0144.

Consider C82A A111G A120C A145U C150G, for which the reverse-splicing fitness was 0.011.

For the variant C82A A111G A120C A145U C150U, the reverse-splicing fitness is 0.0296.

In the case of C82A A111G A120C A145U C150A, the reverse-splicing fitness worked out at 0.0115.

On to C82A A111G A120C A145G C150G C169A U176A, for which the reverse-splicing fitness was determined as 0.0145.

For the variant C82A A111G A120C A145G C150G C169A U176C, the reverse-splicing fitness is 0.0137.

On to C82A A111G A120C A145G C150G C169A U176G, for which the reverse-splicing fitness is 0.00827.

Turning to C82A A111G A120C A145G C169G U176C, the reverse-splicing fitness came out at 0.0275.

C82A A111G A120C A145G C169G U176A: the reverse-splicing fitness came to 0.0216.

As to C82A A111G A120C A145G C169G U176G, the reverse-splicing fitness was 0.0054.

With C82A A111G A120C A145U C150G C169U U176C, the reverse-splicing fitness turned out to be 0.0102.

As to C82A A111G A120C A145U C150G C169U U176A, the reverse-splicing fitness was found to be 0.00666.

Take C82A A111G A120C A145U C150G C169U U176G: the reverse-splicing fitness came out at 0.00564.

As for C82A A111G A120C A145C C150A C169U, the reverse-splicing fitness is 0.00853.

Take C82A A111G A120C A145C C150A C169G: the reverse-splicing fitness is 0.00832.

C82A A111G A120C A145G C169U U176G: the reverse-splicing fitness is 0.00528.

Consider C82A A111G A120C A145G C169U U176A, for which the reverse-splicing fitness is 0.0149.

Take C82A A111G A120C A145G C169U U176C: the reverse-splicing fitness came to 0.0146.

Consider C82A A111G A120C A145G U176C, for which the reverse-splicing fitness turned out to be 0.0327.

Regarding C82A A111G A120C A145G U176G, the reverse-splicing fitness turned out to be 0.00889.

C82A A111G A120C A145G U176A: the reverse-splicing fitness is 0.0183.

For C82A A111G A120C A145U C150U C169A U176A, the reverse-splicing fitness came to 0.0157.

As for C82A A111G A120C A145U C150U C169A U176G, the reverse-splicing fitness worked out at 0.00591.
